Test results as given in patent publication US20140087995A1 (published 2014).
Numbered stars: 1 amine (or outer) side, 2 acyl side, 3 side chain; on linkers, the order of the positions; unused ones are H or OH. Bridge positions count the residues as written; N and C are the ends. Side chains are listed from the residue outwards. Ends that are not written are not given here. * marks the point of attachment. C20 diacid = O=C(O)CCCCCCCCCCCCCCCCCCC(=O)*; γGlu = O=C(O)[C@H](CCC(=O)[*:2])N[*:1]

T1: rat amylin receptor (rat calcitonin receptor + rat RAMP 3) (rat, UniProt P32214 25-516; Q9JJ73 23-147)
T1 construct: whole, on cells; Used as membranes prepared from BHK tk'ts 13 cells transiently transfected with rat calcitonin receptor and rat RAMP 3 (Assay VI); also called rAmylin-R; rat amylin 3(a) receptor
T1 sequence (looked up) 1: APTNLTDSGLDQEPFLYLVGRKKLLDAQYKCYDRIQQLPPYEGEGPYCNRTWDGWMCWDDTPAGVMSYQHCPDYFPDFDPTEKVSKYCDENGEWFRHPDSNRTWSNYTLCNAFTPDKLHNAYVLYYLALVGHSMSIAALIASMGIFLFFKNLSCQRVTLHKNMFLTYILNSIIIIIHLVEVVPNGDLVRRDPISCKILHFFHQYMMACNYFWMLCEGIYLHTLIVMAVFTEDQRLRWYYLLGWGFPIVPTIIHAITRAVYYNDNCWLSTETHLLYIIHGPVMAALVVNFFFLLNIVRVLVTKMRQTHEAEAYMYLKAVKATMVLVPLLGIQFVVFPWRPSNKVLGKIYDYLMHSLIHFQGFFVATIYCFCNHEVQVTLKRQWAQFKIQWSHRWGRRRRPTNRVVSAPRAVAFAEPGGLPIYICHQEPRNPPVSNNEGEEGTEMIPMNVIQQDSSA
T1 sequence (looked up) 2: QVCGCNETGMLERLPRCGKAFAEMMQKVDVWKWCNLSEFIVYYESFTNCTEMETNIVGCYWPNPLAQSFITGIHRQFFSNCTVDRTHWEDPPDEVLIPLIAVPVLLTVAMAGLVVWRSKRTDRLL

T2: rat calcitonin receptor (rat, UniProt P32214 25-516)
T2 construct: whole, on cells; Used as membranes prepared from BHK tk'ts 13 cells transiently transfected with the rat calcitonin receptor (Assay VIII); also called rCTR; rat calcitonin (a) receptor
T2 sequence (looked up): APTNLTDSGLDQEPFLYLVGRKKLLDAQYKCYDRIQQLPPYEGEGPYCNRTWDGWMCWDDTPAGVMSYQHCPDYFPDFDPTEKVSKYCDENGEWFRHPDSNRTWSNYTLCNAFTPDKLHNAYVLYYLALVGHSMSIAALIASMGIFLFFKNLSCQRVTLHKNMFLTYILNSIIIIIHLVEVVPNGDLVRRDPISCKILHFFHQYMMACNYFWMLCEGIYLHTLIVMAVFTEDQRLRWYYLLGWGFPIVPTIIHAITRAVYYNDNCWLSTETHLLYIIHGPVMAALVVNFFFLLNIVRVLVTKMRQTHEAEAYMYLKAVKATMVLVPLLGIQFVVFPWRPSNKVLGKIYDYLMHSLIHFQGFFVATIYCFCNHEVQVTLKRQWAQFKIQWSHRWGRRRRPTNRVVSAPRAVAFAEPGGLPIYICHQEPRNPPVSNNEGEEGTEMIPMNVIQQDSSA

T3: human calcitonin receptor (human, UniProt P30988 25-474)
T3 construct: whole, on cells; Used as membranes prepared from a BHK tk'ts 13 cell line stably transfected with the human calcitonin receptor (Assay VII); also called hCTR; hCT
T3 sequence (looked up): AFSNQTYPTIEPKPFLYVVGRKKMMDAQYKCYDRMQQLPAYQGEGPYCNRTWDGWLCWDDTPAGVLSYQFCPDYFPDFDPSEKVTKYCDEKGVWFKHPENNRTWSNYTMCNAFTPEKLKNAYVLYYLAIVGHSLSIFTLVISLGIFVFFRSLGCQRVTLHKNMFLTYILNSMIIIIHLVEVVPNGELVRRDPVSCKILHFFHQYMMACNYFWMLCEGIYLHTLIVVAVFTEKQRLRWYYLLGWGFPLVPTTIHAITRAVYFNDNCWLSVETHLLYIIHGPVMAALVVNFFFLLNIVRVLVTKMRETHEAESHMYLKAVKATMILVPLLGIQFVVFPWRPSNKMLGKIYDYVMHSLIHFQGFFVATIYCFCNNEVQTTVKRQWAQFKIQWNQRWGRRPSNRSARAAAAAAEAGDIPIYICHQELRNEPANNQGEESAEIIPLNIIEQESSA


Assays:
[1] = biological target: T1, rat amylin receptor (rat calcitonin …); assay: SPA competition with 125I-rat amylin, membranes of BHK cells with rat CTR + rat RAMP3 (Assay VI)
[2] = biological target: T2, rat calcitonin receptor; assay: IC50 on rat CTR divided by IC50 on rat amylin receptor (Assays VIII/VI)
[3] = biological target: T3, human calcitonin receptor; assay: IC50 on human CTR divided by IC50 on human amylin receptor (Assays VII/V)
Method in brief: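 IC₅₀ values were derived by one-site competition analysis of SPA counts. Cell membranes (35 ng/μL) with SPA beads were incubated with test compounds for 120 min at 25° C in Hepes buffer, pH 7.4, containing CaCl2, MgCl₂, OA and Tween20.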

[4] = biological target: T2, rat calcitonin receptor; assay: SPA competition with 125I-calcitonin, membranes of BHK cells with rat CTR (Assay VIII)

| Binder | IC50 [1] [nM] | Ratio rCT/rAmylin binding [2] | Ratio hCT/hAmylin binding [3] | IC50 [4] [nM] |
| --- | --- | --- | --- | --- |
| K([γGlu-C20 diacid])CNTATCATQRLANFLRHSSPNFGAIPSSTNVGRNTY-NH2 (disulfide 2-7; N-terminus assumed; SMILES CC[C@H](C)[C@H](NC(=O)[C@H](C)NC(=O)CNC(=O)[C@H](Cc1ccccc1)NC(=O)[C@H](CC(N)=O)NC(=O)[C@@H]1CCCN1C(=O)[C@H](CO)NC(=O)[C@H](CO)NC(=O)[C@H](Cc1c[nH]cn1)NC(=O)[C@H](CCCNC(=N)N)NC(=O)[C@H](CC(C)C)NC(=O)[C@H](Cc1ccccc1)NC(=O)[C@H](CC(N)=O)NC(=O)[C@H](C)NC(=O)[C@H](CC(C)C)NC(=O)[C@H](CCCNC(=N)N)NC(=O)[C@H](CCC(N)=O)NC(=O)[C@@H](NC(=O)[C@H](C)NC(=O)[C@@H]1CSSC[C@H](NC(=O)[C@@H](N)CCCCNC(=O)CC[C@H](NC(=O)CCCCCCCCCCCCCCCCCCC(=O)O)C(=O)O)C(=O)N[C@@H](CC(N)=O)C(=O)N[C@@H]([C@@H](C)O)C(=O)N[C@@H](C)C(=O)N[C@@H]([C@@H](C)O)C(=O)N1)[C@@H](C)O)C(=O)N1CCC[C@H]1C(=O)N[C@@H](CO)C(=O)N[C@@H](CO)C(=O)N[C@H](C(=O)N[C@@H](CC(N)=O)C(=O)N[C@H](C(=O)NCC(=O)N[C@@H](CCCNC(=N)N)C(=O)N[C@@H](CC(N)=O)C(=O)N[C@H](C(=O)N[C@@H](Cc1ccc(O)cc1)C(N)=O)[C@@H](C)O)C(C)C)[C@@H](C)O, Analogue of human amylin; also called compound 79) [N^ε1-[(4S)-4-carboxy-4-(19-carboxynonadecanoylamino)butanoyl]-[Arg17,Pro21,Pro27,Arg34]-h-amylin] | 1.65 | 21.5 | 46.1 | 35.5 |
| K([γGlu-C20 diacid])CNTATCATQRLAHFLRHSSPNFGAIPSSTNVGHNTY-NH2 (disulfide 2-7; N-terminus assumed; SMILES CC[C@H](C)[C@H](NC(=O)[C@H](C)NC(=O)CNC(=O)[C@H](Cc1ccccc1)NC(=O)[C@H](CC(N)=O)NC(=O)[C@@H]1CCCN1C(=O)[C@H](CO)NC(=O)[C@H](CO)NC(=O)[C@H](Cc1c[nH]cn1)NC(=O)[C@H](CCCNC(=N)N)NC(=O)[C@H](CC(C)C)NC(=O)[C@H](Cc1ccccc1)NC(=O)[C@H](Cc1c[nH]cn1)NC(=O)[C@H](C)NC(=O)[C@H](CC(C)C)NC(=O)[C@H](CCCNC(=N)N)NC(=O)[C@H](CCC(N)=O)NC(=O)[C@@H](NC(=O)[C@H](C)NC(=O)[C@@H]1CSSC[C@H](NC(=O)[C@@H](N)CCCCNC(=O)CC[C@H](NC(=O)CCCCCCCCCCCCCCCCCCC(=O)O)C(=O)O)C(=O)N[C@@H](CC(N)=O)C(=O)N[C@@H]([C@@H](C)O)C(=O)N[C@@H](C)C(=O)N[C@@H]([C@@H](C)O)C(=O)N1)[C@@H](C)O)C(=O)N1CCC[C@H]1C(=O)N[C@@H](CO)C(=O)N[C@@H](CO)C(=O)N[C@H](C(=O)N[C@@H](CC(N)=O)C(=O)N[C@H](C(=O)NCC(=O)N[C@@H](Cc1c[nH]cn1)C(=O)N[C@@H](CC(N)=O)C(=O)N[C@H](C(=O)N[C@@H](Cc1ccc(O)cc1)C(N)=O)[C@@H](C)O)C(C)C)[C@@H](C)O, Analogue of human amylin; also called compound 81) | 1.42 | 42.9 | 87.2 | 61.1 |
| K([γGlu-C20 diacid])CNTATCATQRLANFLRHSSPNFGAIPSSTNVGHNTY-NH2 (disulfide 2-7; N-terminus assumed; SMILES CC[C@H](C)[C@H](NC(=O)[C@H](C)NC(=O)CNC(=O)[C@H](Cc1ccccc1)NC(=O)[C@H](CC(N)=O)NC(=O)[C@@H]1CCCN1C(=O)[C@H](CO)NC(=O)[C@H](CO)NC(=O)[C@H](Cc1c[nH]cn1)NC(=O)[C@H](CCCNC(=N)N)NC(=O)[C@H](CC(C)C)NC(=O)[C@H](Cc1ccccc1)NC(=O)[C@H](CC(N)=O)NC(=O)[C@H](C)NC(=O)[C@H](CC(C)C)NC(=O)[C@H](CCCNC(=N)N)NC(=O)[C@H](CCC(N)=O)NC(=O)[C@@H](NC(=O)[C@H](C)NC(=O)[C@@H]1CSSC[C@H](NC(=O)[C@@H](N)CCCCNC(=O)CC[C@H](NC(=O)CCCCCCCCCCCCCCCCCCC(=O)O)C(=O)O)C(=O)N[C@@H](CC(N)=O)C(=O)N[C@@H]([C@@H](C)O)C(=O)N[C@@H](C)C(=O)N[C@@H]([C@@H](C)O)C(=O)N1)[C@@H](C)O)C(=O)N1CCC[C@H]1C(=O)N[C@@H](CO)C(=O)N[C@@H](CO)C(=O)N[C@H](C(=O)N[C@@H](CC(N)=O)C(=O)N[C@H](C(=O)NCC(=O)N[C@@H](Cc1c[nH]cn1)C(=O)N[C@@H](CC(N)=O)C(=O)N[C@H](C(=O)N[C@@H](Cc1ccc(O)cc1)C(N)=O)[C@@H](C)O)C(C)C)[C@@H](C)O, Analogue of human amylin; also called compound 77) [N^ε1-[(4S)-4-carboxy-4-(19-carboxynonadecanoylamino)butanoyl]-[Arg17,Pro21,Pro27,His34]-h-amylin] | 1.5 | 137 | 118 | 205 |

These reach a lower IC50 [1]. Values come first.

| IC50 [1] [nM] | Ratio rCT/rAmylin binding [2] | Ratio hCT/hAmylin binding [3] | IC50 [4] [nM] | Binder |
| --- | --- | --- | --- | --- |
| 0.523 | 119 | 37.5 | 62 | K([γGlu-C20 diacid])CNTATCATQRLAEFLRHSSPNFGAIPSSTNVGSRTY-NH2 (disulfide 2-7; N-terminus assumed; SMILES CC[C@H](C)[C@H](NC(=O)[C@H](C)NC(=O)CNC(=O)[C@H](Cc1ccccc1)NC(=O)[C@H](CC(N)=O)NC(=O)[C@@H]1CCCN1C(=O)[C@H](CO)NC(=O)[C@H](CO)NC(=O)[C@H](Cc1c[nH]cn1)NC(=O)[C@H](CCCNC(=N)N)NC(=O)[C@H](CC(C)C)NC(=O)[C@H](Cc1ccccc1)NC(=O)[C@H](CCC(=O)O)NC(=O)[C@H](C)NC(=O)[C@H](CC(C)C)NC(=O)[C@H](CCCNC(=N)N)NC(=O)[C@H](CCC(N)=O)NC(=O)[C@@H](NC(=O)[C@H](C)NC(=O)[C@@H]1CSSC[C@H](NC(=O)[C@@H](N)CCCCNC(=O)CC[C@H](NC(=O)CCCCCCCCCCCCCCCCCCC(=O)O)C(=O)O)C(=O)N[C@@H](CC(N)=O)C(=O)N[C@@H]([C@@H](C)O)C(=O)N[C@@H](C)C(=O)N[C@@H]([C@@H](C)O)C(=O)N1)[C@@H](C)O)C(=O)N1CCC[C@H]1C(=O)N[C@@H](CO)C(=O)N[C@@H](CO)C(=O)N[C@H](C(=O)N[C@@H](CC(N)=O)C(=O)N[C@H](C(=O)NCC(=O)N[C@@H](CO)C(=O)N[C@@H](CCCNC(=N)N)C(=O)N[C@H](C(=O)N[C@@H](Cc1ccc(O)cc1)C(N)=O)[C@@H](C)O)C(C)C)[C@@H](C)O, Analogue of human amylin; also called compound 51) |
| 0.215 | 122 | 45.2 | 26.3 | K([γGlu-C20 diacid])CNTATCATQRLANFLRHSSPNFGAIPSSTNVGSHTY-NH2 (disulfide 2-7; N-terminus assumed; SMILES CC[C@H](C)[C@H](NC(=O)[C@H](C)NC(=O)CNC(=O)[C@H](Cc1ccccc1)NC(=O)[C@H](CC(N)=O)NC(=O)[C@@H]1CCCN1C(=O)[C@H](CO)NC(=O)[C@H](CO)NC(=O)[C@H](Cc1c[nH]cn1)NC(=O)[C@H](CCCNC(=N)N)NC(=O)[C@H](CC(C)C)NC(=O)[C@H](Cc1ccccc1)NC(=O)[C@H](CC(N)=O)NC(=O)[C@H](C)NC(=O)[C@H](CC(C)C)NC(=O)[C@H](CCCNC(=N)N)NC(=O)[C@H](CCC(N)=O)NC(=O)[C@@H](NC(=O)[C@H](C)NC(=O)[C@@H]1CSSC[C@H](NC(=O)[C@@H](N)CCCCNC(=O)CC[C@H](NC(=O)CCCCCCCCCCCCCCCCCCC(=O)O)C(=O)O)C(=O)N[C@@H](CC(N)=O)C(=O)N[C@@H]([C@@H](C)O)C(=O)N[C@@H](C)C(=O)N[C@@H]([C@@H](C)O)C(=O)N1)[C@@H](C)O)C(=O)N1CCC[C@H]1C(=O)N[C@@H](CO)C(=O)N[C@@H](CO)C(=O)N[C@H](C(=O)N[C@@H](CC(N)=O)C(=O)N[C@H](C(=O)NCC(=O)N[C@@H](CO)C(=O)N[C@@H](Cc1c[nH]cn1)C(=O)N[C@H](C(=O)N[C@@H](Cc1ccc(O)cc1)C(N)=O)[C@@H](C)O)C(C)C)[C@@H](C)O, Analogue of human amylin; also called compound 60) [N^ε1-[(4S)-4-carboxy-4-(19-carboxynonadecanoylamino)butanoyl]-[Arg17,Pro21,Pro27,His35]-h-amylin] |
